In the series the test system is HEK293 cells. The series is classed as cell-based, human. The following applies: luminescence from secreted Gluc in supernatant 24 hours after transfection of HEK293 cells; circular RNA encoding Gluc with the named IRES (UTR truncated to 675 nt).

B1: A115-675 (nucleic acid)
DNA: ACCTTTGTGCGCCTGTTTTATACCCCCCCCAACCTCGAAACTTAGAAGTAAAGCAAACCCGATCAATAGCAGGTGCGGCGCACCAGTCGCATCTTGATCAAGCACTTCTGTAACCCCGGACCGAGTATCAATAGACTGCTCACGCGGTTGAAGGAGAAAACGTTCGTTACCCGGCTAACTACTTCGAGAAACCCAGTAGCATCATGAAAGTTGCAGAGTGTTTCGCTCAGCACTACCCCCGTGTAGATCAGGCCGATGAGTCACCGCACTTCCCCACGGGCGACCGTGGCGGTGGCTGCGTTGGCGGCCTGCCTATGGGGCAACCCATAGGACGCTCTAATACGGACATGGTGCGAAGAGTCTATTGAGCTAGTTAGTAGTCCTCCGGCCCCTGAATGCGGCTAATCCTAACTGCGGAGCACATACCCTTAATCCAAAGGGCAGTGTGTCGTAACGGGTAACTCTGCAGCGGAACCGACTACTTTGGGTGTCCGTGTTTCCTTTTAATTTTTACTGGCTGCTTATGGTGACAATTGAGGAATTGTTGCCATATAGCTATTGGATTGGCCATCCGGTGACTAACAGAGCTATTGTGTTCCAATTTGTTGGATTTACCCCGCTCACACTCACAGTCGTAAGAACCCTTCATTACGTGTTATTTCTCAACTCAAGAAA
As to B1, the Expression was 5.93E+07.

B2: Aichivirus ETHP4 (nucleic acid, listed as Aichivirus sp.)
DNA: TTACTCCATTCAGCTTCTTCGGAACCTGTTCGGAGGAATTAAACGGGCACCCATACACCCCCACCCCCTTTTTGCAACTTAAGTATGTGTGCTCGTGATCTTGACTCCCACGGAATGGATCGATCCGCTGGAGAACAAACTGCTAGATCCACATCCTCCCTTCCCTTGGGAGGACCTCGGTCCTCCCACATCCTCCCCCCAGCCTGACGTACCACAGGCTGTGTGAAGCCCCCGCGAAAGCCGCTCACGTGGCAATTGTGGGTCCCCCCTTCATTAAGACACCAGGTCTTTCCTCCTTAAGGCTAGTCCCGATGTGTGAATTCACATTGGGCAACTAGTGGTGTCACTGTGCGCTCCCAATCTCGGCCGCGGAGTGCTGTTCCCCAAGCCAAACCCCTGGCCCTTCACTATGTGCCTGGCAAGCATATCTGAGAAGGTGTTCCGCTGTGGCTGCCAGCCTGGTAACAGGTGCCCCAGTGTGCGTAACCTTCTTCCGTCTTCGGACGGTAGTGATTGGTTAAGATTTGGCGTAAGGTTCATGTGCCAACGCCCTGTGCGGGATGAAACCTCTACTACCCTAGGAATGCCAGGCAGGTACCCCACCCTCGGGTGGGATCTGAGCCTGGGCTAATTGTCTACGGGTAGTTTCATTTCCAATTCTTCTATGTCGGAGTC
Consider B2, for which the Expression is 1.78E+07.

B3: A73-675 (nucleic acid)
DNA: TTACTCCATTCAGCTTCTTCGGAACCTGTTCGGAGGAATTAAACGGGCACCCATACTCCCCCCACCCCCCTTTTGTAACTAAGTATGTGTGCTCGTGATCTTGACTCCCACGGAACGGACCGATCCGTTGGTGAACAAACAGCTAGGTCCACATCCTCCCTTCCCCTGGGAGGGCCCCCGCCCTCCCACATCCTCCCCCCAGCCTGACGTATCACAGGCTGTGTGAAGCCCCCGCGAAAGCTGCTCACGTGGCAATTGTGGGTCCCCCCTTCATCAAGACACCAGGTCTTTCCTCCTTAAGGCTAGCCCCGGCGTGTGAATTCACGTTGGGCAACTAGTGGTGTCACTGTGCGCTCCCAATCTCGGCCGCGGAGTGCTGTTCCCCAAGCCAAACCCCTGGCCCTTCACTATGTGCCTGGCAAGCATATCTGAGAAGGTGTTCCGCTGTGGCTGCCAACCTGGTGACAGGTGCCCCAGTGTGCGTAACCTTCTTCCGTCTCCGGACGGTAGTGATTGGTTAAGATTTGGTGTAAGGTTCATGTGCCAACGCCCTGTGCGGGATGAAACCTCTACTGCCCTAGGAATGCCAGGCAGGTACCCCACCTCCGGGTGGGATCTGAGCCTGGGCTAATTGTCTACGGGTAGTTTCATTTCCAATCCTTTTATGTCGGAGTC
B3 registered an Expression of 1.30E+08.

B4: Aichivirus Goiania (nucleic acid, listed as Aichivirus sp.)
DNA: ACTCCATTCAGCTTCTTCGGAACCTGTTCGGAGGAATTAAACGGGCACCCATACACCCCCATCCCCTTTTTTGCAACTTAAGTATGTGTGCTCGTAATCTTGACTCCCACGGAATGGATCGATCCGCTGGAGAACAAACTGCTAGATCCACATCCTCCCTCCCCCCTGGGAGGACCTCGGTCCTCCCACATCCTCCCCCCAGCCTGACGTATCACAGGCTGTGTGAAGCCCCCGCGAAAGCTGCTCACGTGGCAATTGTGGGTCCCCCCTTCATCAAGACACCAGGTCTTTCCTCCTTAAGGCTAGTCCCGATGTGTGAATTCACATCGGGCAACTAGTGGTGTCACTGTGCGCTCCCAATCTCGGCCGCGGAGTGCTGTTCCCCAAGCCAAACCCCTGGCCCTTCACTATGTGCCTGGCAAGCATATCTGAGAAGGCGTTCCGCTGTGGCTGCCAGCCTGGTAACAGGTGCCCCAGTGTGCGTAACCTTCTTCCGTCCCCGGACGGTAGTGATTGGTTAAGACTTGGCGTAAGGTTCATGTGCCAACGCCCTGTGCGGGATGAAACCTCTACTGCCCTAGGAATGCCAGGCAGGTACCCCACCTTCGGGTGGGATCTGAGCCTGGGCTAATTGTCTACGGGTAGTTTCATTTCTAATTCTTTCATGTCGGAGTC
Regarding B4, the Expression turned out to be 1.66E+07.

B5: Kobuvirus 16317 (nucleic acid, listed as Kobuvirus sp.)
DNA: TTACTCCATTCAGCTTCTTCGGAACCTGTTCGGAGGAATTAAACGGGCACCCATACACCCCCATCCCCTTTCTGCAACTTAAGTATGTGTGCTCGTGATCTTGACTCCCACGGAATGGATCGATCCGCTGGAGAACAAACTGCTAGATCCACATCCTCCCTTCCCCTGGGAGGACCTTGGTCCTCCCACATCCTCCCCCCAGCCTGACGTACCACAGGCTGTGTGAAGCCCCCGCGAAAGCTGCTCACGTGGCAATTGTGGGTCCCCCCTTCATCAAGACACCAGGTCTTTCCTCCTTAAGGCTAGCCCCGATGTGTGAATTCACATTGGGCAACTAGTGGTGTCACTGTGCGCTCCCAATCTCGGCCGCGGAGTGCTGTTCCCCAAGCCAAACCCCTGGCCCTTCACTATGTGCCTGGCAAGCATACCTGAGAAGGTGTTCCGCTGTGGCTGCCAGCCTGGTAACAGGTGCCCCAGTGTGCGTAACCTTCTTCCGTCTTCGGACGGTAGTGATTGGTTAAGATTTGGTGTAAGGTCCATGTGCCAACGCCCTGTGCGGGATGAAACCTCTACTGCCCTAGGAATGCCAGGCAGGTACCCCACCCCCGGGTGGGATCTGAGCCTGGGCTAATTGTCTACGGGTAGTTTCATTTCCAATTCTTTTATGTCGGAGTC
In turn, B5 returned an Expression of 2.03E+07.

B6: Aichivirus Chshc7 (nucleic acid, listed as Aichivirus sp.)
DNA: TTACTCCATTCAGCTTCTTCGGAACCTGTTCGGAGGAATTAAACGGGCACCCATACATCCCCATCCCCTTTCTGTAACTTAAGTATGTGTGCTTGTAATCTTGACTCCCACGGAATGGATCGATCCGCTGGAGAACAAACTGCTAGATCCACATCCTCCCTTCCCCTGGGAGGACCTTGGTCCTCCCACATCCTCCCCCCAGCCTGACGTACCACAGGCTGTGTGAAGCCCCCGCGAAAGCTGCTCACGTGGCAATTGTGGGTCCCCCCTTCATCAAGACACCAGGTCTTTCCTCCTTAAGGCTAGCCCCGATGTGTGAATTCACATTGGGCAACTAGTGGTGTCACTGTGCGCTCCCAATCTCGGCCGCGGAGTGCTGTTCCCCAAGCCAAACCCCTGGCCCTTCACTATGTGCCTGGCAAGCATATCTGAGAAGGTGTTCCGCTGTGGCTGCCAGCCTGGTAACAGGTGCCCCAGTGTGCGTAACCTTCTTCCGTCTCCGGACGGTAGTGATTGGTTAAGATTTGGTGTAAGGTTCATGTGCCAACGCCCTGTGCGGGATGAAATCTCTACTGCCCTAGGAATGCCAGGCAGGTACCCCACCCTCGGGTGGGATCTGAGCCTGGGCTAATTGTCTACGGGTAGTTTCATTTCCAATCCTTTTATGTCGGAGTC
The molecule B6 displayed an Expression of 1.87E+07.

Source of the values: patent US20230226096A1 (Orna Therapeutics, Inc., priority 2020, published 2023).
